IntAct's records for PubMed 12852788

B1: Lymphocyte antigen 6 complex locus protein G6f (Homo sapiens), Q5SQ64 (parent)
chain: MAVLFLLLFLCGTPQAADNMQAIYVALGEAVELPCPSPPTLHGDEHLSWFCSPAAGSFTTLVAQVQVGRPAPDPGKPGRESRLRLLGNYSLWLEGSKEEDAGRYWCAVLGQHHNYQNWRVYDVLVLKGSQLSARAADGSPCNVLLCSVVPSRRMDSVTWQEGKGPVRGRVQSFWGSEAALLLVCPGEGLSEPRSRRPRIIRCLMTHNKGVSFSLAASIDASPALCAPSTGWDMPWILMLLLTMGQGVVILALSIVLWRQRVRGAPGRDASIPQFKPEIQVYENIHLARLGPPAHKPR

Variants of: B1
Details: with grb7_human GRB7, Q14451
grb7_human GRB7, Q14451, sequence (Q14451 whole entry): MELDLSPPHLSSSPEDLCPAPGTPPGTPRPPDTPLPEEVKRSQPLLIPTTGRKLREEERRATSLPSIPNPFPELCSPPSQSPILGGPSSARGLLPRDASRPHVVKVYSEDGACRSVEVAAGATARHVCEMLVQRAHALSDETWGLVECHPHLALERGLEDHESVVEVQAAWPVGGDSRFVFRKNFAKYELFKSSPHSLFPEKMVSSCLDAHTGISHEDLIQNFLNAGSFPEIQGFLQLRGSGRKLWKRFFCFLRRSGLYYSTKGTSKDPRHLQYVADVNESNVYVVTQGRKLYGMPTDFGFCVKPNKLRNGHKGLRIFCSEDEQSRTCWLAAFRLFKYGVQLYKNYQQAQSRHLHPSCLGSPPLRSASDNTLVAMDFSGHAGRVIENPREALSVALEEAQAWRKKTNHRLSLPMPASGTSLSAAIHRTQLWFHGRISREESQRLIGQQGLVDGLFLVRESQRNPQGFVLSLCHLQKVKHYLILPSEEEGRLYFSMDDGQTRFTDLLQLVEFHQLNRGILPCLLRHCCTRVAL

Row | effect of a mutation on the interaction | Variant
1 | disrupting interaction strength | MAVLFLLLFLCGTPQAADNMQAIYVALGEAVELPCPSPPTLHGDEHLSWFCSPAAGSFTTLVAQVQVGRPAPDPGKPGRESRLRLLGNYSLWLEGSKEEDAGRYWCAVLGQHHNYQNWRVYDVLVLKGSQLSARAADGSPCNVLLCSVVPSRRMDSVTWQEGKGPVRGRVQSFWGSEAALLLVCPGEGLSEPRSRRPRIIRCLMTHNKGVSFSLAASIDASPALCAPSTGWDMPWILMLLLTMGQGVVILALSIVLWRQRVRGAPGRDASIPQFKPEIQVFENIHLARLGPPAHKPR [Y281F]

Variants of: B1
Details: with grb2_human GRB2, P62993

Row | effect of a mutation on the interaction | Variant
2 | disrupting interaction strength | MAVLFLLLFLCGTPQAADNMQAIYVALGEAVELPCPSPPTLHGDEHLSWFCSPAAGSFTTLVAQVQVGRPAPDPGKPGRESRLRLLGNYSLWLEGSKEEDAGRYWCAVLGQHHNYQNWRVYDVLVLKGSQLSARAADGSPCNVLLCSVVPSRRMDSVTWQEGKGPVRGRVQSFWGSEAALLLVCPGEGLSEPRSRRPRIIRCLMTHNKGVSFSLAASIDASPALCAPSTGWDMPWILMLLLTMGQGVVILALSIVLWRQRVRGAPGRDASIPQFKPEIQVFENIHLARLGPPAHKPR [Y281F]
